Test results reported in US20040077031A1, “Novel methionine aminopeptidase-2 and uses thereof” (priority 2002, published 2004).

Legend:
Experiment in all cases: Kinetic constants of MetAP2 with Mn2+ on peptide substrates (chromogenic assay)
Assay type in all cases: biochemical, human
Settings in all cases: other: MetAP2 with 100 μM Mn2+; pH 7.4
[1] = substrate: CSCC[C@H](N)C(=O)NCC(=O)N[C@@H](CCCCN)C(=O)N[C@H](C(=O)N[C@@H](CCCCN)C(=O)N[C@H](C(=O)O)C(C)C)C(C)C
From the text: (§1) A coupled-enzyme chromogenic assay was used to measure methionine aminopeptidase activity by monitoring the production of free methionine cleaved from specific peptide substrates containing methionine. […] Free methionine was oxidized with L-amino acid oxidase (AAO, Sigma Catalog No. A-9378) and horseradish peroxidase (HRP, Sigma Catalog No. P-8451). Oxidation by AAO of free methionine generates hydrogen peroxide (H2O2) which then reacts with HRP oxidizing 0-dianisidine (Sigma Catalog No. D-1954) or 10-acetyl-3,7-dihydrophenoxazine (Amplex Red, Molecular Probes). Assays were performed in 96-well microtiter plates. Enzyme preparations were diluted in assay buffer (50 mM HEPES, pH 7.4, 100 mM NaCl), and 10 μl of the enzymes were introduced into each well. A mixture (90 μl) of 0.1 mg/ml L-amino acid oxidase, 0.1 mg/ml of horseradish peroxidase, 0.1 mg/ml ortho-dianisidine, and 0.5 mM peptide substrate was added to each cell. The reactions were carried out at room temperature, and the absorbance at 450 nanometer (A450) was measured every 20 seconds over a period of twenty minutes using an automatic plate reader (Molecular Devices, Calif., USA). The rate in mOD/min, calculated for each well, was used to represent MetAP1 or MetAP2 activity. Under this assay condition, the methionine cleaved from peptide substrate by MetAP1 or MetAP2 was instantaneously oxidized to generate a final A450 readout. It was determined that 1 μM methionine generated a 2.25 mOD increase in the A450 readout.
(§2) MetAP2 using Mn^2+ as cofactor was studied to obtain kinetic constants on several peptide substrates. […] Enzyme kinetics was studied using the chromogenic assay to determine enzymatic activity as described in Example 3. […] These peptides were tested at a final concentration of 20, 40, 80, 160, 320, and 640 μM in the assay buffer (50 mM HEPES, pH 7.4, 100 mM NaCl). […] The initial rate of methionine cleavage was determined by measuring the A450 change as described above. Kinetic constants were calculated using Linewaver-Burk plots.

[2] = substrate: CSCC[C@H](N)C(=O)NCC(=O)N[C@@H](CCCCN)C(=O)N[C@H](C(=O)O)C(C)C
From the text: as §1, §2

[3] = substrate: CSCC[C@H](N)C(=O)NCC(=O)N[C@@H](CCCCN)C(=O)N[C@H](C(=O)N[C@@H](CCCCN)C(=O)N[C@H](C(=O)NCC(=O)N[C@H](C(=O)N[C@@H](CC(N)=O)C(=O)NCC(=O)N[C@@H](Cc1ccccc1)C(=O)O)C(C)C)C(C)C)C(C)C
From the text: as §1, §2

[4] = substrate: CSCC[C@H](N)C(=O)NCC(=O)N[C@@H](CC(N)=O)C(=O)N[C@@H](C)C(=O)N[C@@H](C)C(=O)N[C@@H](C)C(=O)N[C@@H](C)C(=O)N[C@@H](CCCCN)C(=O)O
From the text: as §1, §2

[5] = substrate: CSCC[C@H](N)C(=O)NCC(=O)N[C@@H](CCCCN)C(=O)N[C@H](C(=O)N[C@@H](CCCCN)C(=O)N[C@H](C(=O)NCC(=O)N[C@H](C(=O)N[C@@H](CC(N)=O)C(=O)O)C(C)C)C(C)C)C(C)C
From the text: as §1, §2

[6] = substrate: CSCC[C@H](N)C(=O)NCC(=O)N[C@@H](CCCCN)C(=O)N[C@H](C(=O)N[C@@H](CCCCN)C(=O)N[C@H](C(=O)NCC(=O)N[C@H](C(=O)N[C@@H](CC(N)=O)C(=O)NCC(=O)O)C(C)C)C(C)C)C(C)C
From the text: as §1, §2

[7] = substrate: CSCC[C@H](N)C(=O)NCC(=O)N[C@@H](CO)C(=O)N[C@@H](CO)C(=O)N[C@@H](CCCCN)C(=O)N[C@@H](CO)C(=O)N[C@@H](CCCCN)C(=O)N1CCC[C@H]1C(=O)O
From the text: as §1, §2

[8] = substrate: CSCC[C@H](N)C(=O)NCC(=O)N[C@@H](CC(N)=O)C(=O)N[C@@H](CC(C)C)C(=O)N[C@@H](CCCCN)C(=O)N[C@@H](CO)C(=O)N[C@H](C(=O)N[C@@H](C)C(=O)O)C(C)C
From the text: as §1, §2

[9] = substrate: CSCC[C@H](N)C(=O)NCC(=O)N[C@@H](CCCCN)C(=O)O
From the text: as §1, §2

[10] = substrate: CSCC[C@H](N)C(=O)NCC(=O)N[C@@H](C)C(=O)N[C@@H](CCC(N)=O)C(=O)N[C@@H](Cc1ccccc1)C(=O)N[C@@H](CO)C(=O)N[C@@H](CCCCN)C(=O)N[C@H](C(=O)O)[C@@H](C)O
From the text: as §1, §2

[11] = substrate: CSCC[C@H](N)C(=O)NCC(=O)N[C@@H](CCCCN)C(=O)N[C@H](C(=O)N[C@@H](CCCCN)C(=O)O)C(C)C
From the text: as §1, §2

[12] = substrate: CSCC[C@H](N)C(=O)N[C@@H](C)C(=O)N[C@@H](CO)C(=O)O
From the text: as §1, §2

B1: MetAP2 (Homo sapiens) (protein)
chain: MAGVEEVAASGSHLNGDLDPDDREEGAASTAEEAAKKKRRKKKKSKGPSAAGEQEPDKESGASVDEVARQLERSALEDKERDEDDEDGDGDGDGATGKKKKKKKKKRGPKVQTDPPSVPICDLYPNGVFPKGQECEYPPTQDGRTAAWRTTSEEKKALDQASEEIWNDFREAAEAHRQVRKYVMSWIKPGMTMIEICEKLEDCSRKLIKENGLNAGLAFPTGCSLNNCAAHYTPNAGDTTVLQYDDICKIDFGTHISGRIIDCAFTVTFNPKYDTLLKAVKDATNTGIKCAGIDVRLCDVGEAIQEVMESYEVEIDGKTYQVKPIRNLNGHSIGQYRIHAGKTVPIVKGGEATRMEEGEVYAIETFGSTGKGVVHDDMECSHYMKNFDVGHVPIRLPRTKHLLNVINENFGTLAFCRRWLDRLGESKYLMALKNLCDLGIVDPYPPLCDIKGSYTAQFEHTILLRPTCKEVVSRGDDY
notes: gp67 secretion signal of vector pAcGP67B (N); made in house; host or cells: baculovirus-infected Sf9 insect cells, secreted into medium
Km [1]: 149.3 µM
kcat [1]: 8.53 s⁻¹
kcat/Km [1]: 56700 M⁻¹ s⁻¹
Km [2]: 623.7 µM
kcat [2]: 6.7 s⁻¹
kcat/Km [2]: 10000 M⁻¹ s⁻¹
Km [3]: 131.3 µM
kcat [3]: 9.43 s⁻¹
kcat/Km [3]: 71700 M⁻¹ s⁻¹
Km [4]: 259.9 µM
kcat [4]: 3.78 s⁻¹
kcat/Km [4]: 15000 M⁻¹ s⁻¹
Km [5]: 205.0 µM
kcat [5]: 10.2 s⁻¹
kcat/Km [5]: 50000 M⁻¹ s⁻¹
Km [6]: 163.6 µM
kcat [6]: 10.2 s⁻¹
kcat/Km [6]: 61700 M⁻¹ s⁻¹
Km [7]: 233.1 µM
kcat [7]: 3.94 s⁻¹
kcat/Km [7]: 16700 M⁻¹ s⁻¹
Km [8]: 208.3 µM
kcat [8]: 4.87 s⁻¹
kcat/Km [8]: 23300 M⁻¹ s⁻¹
Km [9]: 757.6 µM
kcat [9]: 3.32 s⁻¹
kcat/Km [9]: 5000 M⁻¹ s⁻¹
Km [10]: 224.4 µM
kcat [10]: 4.87 s⁻¹
kcat/Km [10]: 21700 M⁻¹ s⁻¹
Km [11]: 188.1 µM
kcat [11]: 10.4 s⁻¹
kcat/Km [11]: 55000 M⁻¹ s⁻¹
Km [12]: 211.5 µM
kcat [12]: 2.54 s⁻¹
kcat/Km [12]: 12000 M⁻¹ s⁻¹
